Measurements as given in paper PMC6922461.

Molecular target: trivalent Strep-Tactin-SpyCatcher

B1: Siglec-14 with N-terminal Strep-tag II, on THP-1 cells (receptor)
chain: SAWSHPQFEKEKPVYELQVQKSVTVQEGLCVLVPCSFSYPWRSWYSSPPLYVYWFRDGEIPYYAEVVATNNPDRRVKPETQGRFRLLGDVQKKNCSLSIGDARMEDTGSYFFRVERGRDVKYSYQQNKLNLEVTALIEKPDIHFLEPLESGRPTRLSCSLPGSCEAGPPLTFSWTGNALSPLDPETTRSSELTLTPRPEDHGTNLTCQVKRQGAQVTTERTVQLNVSYAPQNLAISIFFRNGTGTALRILSNGMSVPIQEGQSLFLACTVDSNPPASLSWFREGKALNPSQTSMSGTLELPNIGAREGGEFTCRVQHPLGSQHLSFILSVQRSSSSCICVTEKQQGSWPLVLTLIRGALMGAGFLLTYGLTWIYYTRCGGPQQSRAERPG
With B1 as the binder, how does the IL-8 secretion of THP-1 Siglec-14–Strep-tag II DAP12 cells against Strep-tag II–binding sites of trivalent generic ligand per CHO cell; mean EC50 (Strep-tag II–binding sites per cell) read?
The IL-8 secretion of THP-1 Siglec-14–Strep-tag II DAP12 cells against Strep-tag II–binding sites of trivalent generic ligand per CHO cell; mean EC50 (Strep-tag II–binding sites per cell) was 200000.
